Experiment [1] addresses T1, human FcRH1 (full-length, on SVT2 cells) (human, UniProt Q96LA6 17-429).
T1 construct: whole, on cells; also called SVT2-FcRH1
T1 sequence (looked up): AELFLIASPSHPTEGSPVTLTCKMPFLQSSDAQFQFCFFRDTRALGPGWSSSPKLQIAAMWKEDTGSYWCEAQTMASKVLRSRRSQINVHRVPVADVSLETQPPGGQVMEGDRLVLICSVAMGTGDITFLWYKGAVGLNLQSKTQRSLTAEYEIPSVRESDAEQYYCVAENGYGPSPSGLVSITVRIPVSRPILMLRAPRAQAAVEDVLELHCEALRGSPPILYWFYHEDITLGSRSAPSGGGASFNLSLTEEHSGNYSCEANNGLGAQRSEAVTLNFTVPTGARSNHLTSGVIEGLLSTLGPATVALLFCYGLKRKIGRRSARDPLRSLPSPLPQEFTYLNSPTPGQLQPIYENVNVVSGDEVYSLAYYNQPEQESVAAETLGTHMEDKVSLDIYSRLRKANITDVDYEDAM
In words: FACS, SVT2 cells. On the procedure:
(§1) Human FcRH5, cyno FcRH5, human FcRH1, FcRH2, FcRH3, and FcRH4 transfected mouse SVT2 cells were used to test binding and cross-reactivity of FcRH5 TDBs. The method was carried out as follows. Cultured SVT2 cells were lifted using non-enzyme cell dissociation buffer (Sigma, #C5914). 1×10⁵ cells were suspended in 100 μL and incubated with FcRH5 TDBs at 3 μg/ml. […] Cells were washed twice with FACS buffer before flow cytometry analysis was carried out on a FACSCalibur.
In general terms: In flow cytometry, cells or beads pass a laser one at a time.

For experiment [2], the target named is T2, human FcRH4 (full-length, on SVT2 cells) (human, UniProt Q96PJ5 20-515).
T2 construct: whole, on cells; also called SVT2-FcRH4
T2 sequence (looked up): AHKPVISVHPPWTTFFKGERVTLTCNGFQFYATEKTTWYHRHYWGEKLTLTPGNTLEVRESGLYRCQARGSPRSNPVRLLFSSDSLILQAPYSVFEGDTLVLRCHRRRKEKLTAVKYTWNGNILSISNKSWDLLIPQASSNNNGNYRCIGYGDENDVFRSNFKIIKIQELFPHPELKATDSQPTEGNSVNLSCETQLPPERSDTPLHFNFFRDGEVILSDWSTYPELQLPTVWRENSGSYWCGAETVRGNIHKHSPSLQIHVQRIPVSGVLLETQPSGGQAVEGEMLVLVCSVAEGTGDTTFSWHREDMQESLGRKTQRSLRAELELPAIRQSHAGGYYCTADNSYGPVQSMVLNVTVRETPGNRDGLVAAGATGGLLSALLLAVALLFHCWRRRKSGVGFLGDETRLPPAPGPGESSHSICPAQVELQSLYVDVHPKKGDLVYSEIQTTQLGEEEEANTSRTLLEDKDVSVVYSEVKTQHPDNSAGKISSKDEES
In words: FACS, SVT2 cells. On the procedure:
as §1

Experiment [3] concerns the target T3, human FcRH5 protein fragment (soluble) (human, UniProt Q96RD9 16-851).
T3 construct: whole entry named; also called soluble human FcRH5; Human FcRH5 (BIACORE analyte)
T3 sequence: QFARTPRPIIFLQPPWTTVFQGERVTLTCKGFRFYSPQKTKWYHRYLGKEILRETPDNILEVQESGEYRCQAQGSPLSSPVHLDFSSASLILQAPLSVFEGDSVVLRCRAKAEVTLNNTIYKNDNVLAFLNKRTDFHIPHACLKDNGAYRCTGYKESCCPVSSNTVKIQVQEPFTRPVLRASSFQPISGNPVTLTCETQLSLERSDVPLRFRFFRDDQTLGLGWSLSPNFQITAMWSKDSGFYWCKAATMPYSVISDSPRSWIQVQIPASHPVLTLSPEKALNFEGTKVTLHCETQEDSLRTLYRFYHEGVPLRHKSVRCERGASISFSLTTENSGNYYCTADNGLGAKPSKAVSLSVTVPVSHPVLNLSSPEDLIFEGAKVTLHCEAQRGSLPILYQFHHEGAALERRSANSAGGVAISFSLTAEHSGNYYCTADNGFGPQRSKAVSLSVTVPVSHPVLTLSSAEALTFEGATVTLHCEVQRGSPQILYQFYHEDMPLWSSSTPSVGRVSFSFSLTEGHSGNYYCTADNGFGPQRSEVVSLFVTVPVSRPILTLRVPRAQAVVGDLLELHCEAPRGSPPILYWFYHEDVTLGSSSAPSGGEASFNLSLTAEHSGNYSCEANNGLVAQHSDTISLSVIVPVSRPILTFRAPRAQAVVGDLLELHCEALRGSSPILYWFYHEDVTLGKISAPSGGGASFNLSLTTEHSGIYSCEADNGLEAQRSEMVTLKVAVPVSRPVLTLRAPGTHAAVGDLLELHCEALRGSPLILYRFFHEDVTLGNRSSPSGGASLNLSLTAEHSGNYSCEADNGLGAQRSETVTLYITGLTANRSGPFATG
In words: BIACORE, TDB format. For orientation: SPR reads the build-up and loss of mass on a sensor chip optically.

For experiment [4], the target named is T4, human FcRH2 (full-length, on SVT2 cells) (human, UniProt Q96LA5 20-508).
T4 construct: whole, on cells; also called SVT2-FcRH2
T4 sequence (looked up): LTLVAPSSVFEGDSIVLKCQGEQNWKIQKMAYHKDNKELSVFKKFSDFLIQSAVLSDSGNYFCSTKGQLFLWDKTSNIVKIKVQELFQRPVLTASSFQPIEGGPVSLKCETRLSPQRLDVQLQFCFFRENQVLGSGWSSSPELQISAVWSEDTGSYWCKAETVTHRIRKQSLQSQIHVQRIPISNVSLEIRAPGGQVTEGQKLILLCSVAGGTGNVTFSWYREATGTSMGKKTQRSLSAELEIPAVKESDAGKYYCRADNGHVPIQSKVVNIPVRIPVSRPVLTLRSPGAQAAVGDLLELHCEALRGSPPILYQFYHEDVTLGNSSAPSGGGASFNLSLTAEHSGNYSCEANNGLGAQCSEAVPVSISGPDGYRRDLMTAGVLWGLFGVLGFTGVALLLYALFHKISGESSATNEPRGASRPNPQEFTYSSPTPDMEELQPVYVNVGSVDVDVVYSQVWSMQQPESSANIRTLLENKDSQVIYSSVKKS
In words: FACS, SVT2 cells, 3 µg/ml. On the procedure:
as §1

Positions count from the first letter of the chain named.

B1: hu1G7.v1.4/38E4.v1 TDB (bispecific antibody, V domains shown)
VH 1: EVQLVESGPGLVKPSETLSLTCTVSGFSLTRFGVHWVRQPPGKGLEWLGVIWRGGSTDYNAAFMSRLTISKDNSKNQVSLKLSSVTAADTAVYYCSNHYYGSSDYALDNWGQGTLVTVSS
VL 1: DIQMTQSPSSLSASVGDRVTITCKASQDVRNLVVWFQQKPGKAPKLLIYSGSYRYSGVPSRFSGSGSGTDFTLTISSLQPEDFATYYCQQHYSPPYTFGQGTKVEIK
VH 2: EVQLVQSGAEVKKPGASVKVSCKASGFTFTSYYIHWVRQAPGQGLEWIGWIYPENDNTKYNEKFKDRVTITADTSTSTAYLELSSLRSEDTAVYYCARDGYSRYYFDYWGQGTLVTVSS
VL 2: DIVMTQSPDSLAVSLGERATINCKSSQSLLNSRTRKNYLAWYQQKPGQSPKLLIYWTSTRKSGVPDRFSGSGSGTDFTLTISSLQAEDVAVYYCKQSFILRTFGQGTKVEIK
notes: knob-into-hole TDB; also called 1G7.v1.4 TDB; 1G7.v1.4 (TDB format)
One may read the Kd as the concentration at which binding is half-saturated. B1: the binding result in experiment [1] is reported as “no binding (tested: 3 µg/ml)”; in experiment [2], “no binding (tested: 3 µg/ml)”; in experiment [4], “binds”. The molecule also came in with a Kd in experiment [3] of 1.4 nM.

B2: hu1G7.v1.13.1/38E4.v1 TDB (bispecific antibody, V domains shown)
VH 1: B1 VH 1
VL 1: B1 VL 1 with S52Y, S56T, S93Q
VH 2: B1 VH 2
VL 2: B1 VL 2
notes: knob-into-hole TDB; also called 1G7.v1.13.1 TDB
Consider B2, for which the binding result is on record as “no binding (tested: 3 µg/ml)” in experiment [1], “no binding (tested: 3 µg/ml)” in experiment [2] and “binds” in experiment [4]. Moreover, the affinity in experiment [3], expressed as Kd, was 0.9 nM.

B3: hu1G7.v1.13/38E4.v1 TDB (bispecific antibody, V domains shown)
VH 1: B1 VH 1 with L48I
VL 1: B1 VL 1 with S52Y, S56T, S93Q
VH 2: B1 VH 2
VL 2: B1 VL 2
notes: knob-into-hole TDB; also called 1G7.v1.13 TDB
B3: the values for the binding result in experiment [1], in experiment [2] and in experiment [4] were “no binding (tested: 3 µg/ml)”, “no binding (tested: 3 µg/ml)” and “binds”, respectively. Also, binding in experiment [3] was characterised by a dissociation constant (Kd) of 1.2 nM.

B4: hu1G7.v1.1/38E4.v1 TDB (bispecific antibody, V domains shown)
VH 1: B1 VH 1
VL 1: B1 VL 1 with H91Q
VH 2: B1 VH 2
VL 2: B1 VL 2
notes: knob-into-hole TDB; also called 1G7.v1.1 TDB
Turning to B4, the binding result in experiment [1] is given as “no binding (tested: 3 µg/ml)”; in experiment [2], “no binding (tested: 3 µg/ml)”; in experiment [4], “binds”. In addition, in experiment [3], binding was put at a Kd of 2.7 nM.

B5: hu1G7.v1.3/38E4.v1 TDB (bispecific antibody, V domains shown)
VH 1: B1 VH 1
VL 1: B1 VL 1 with L32I, H91Q
VH 2: B1 VH 2
VL 2: B1 VL 2
notes: knob-into-hole TDB; also called 1G7.v1.3 TDB
Turning to B5, the binding result is on record as “no binding (tested: 3 µg/ml)” in experiment [1], “no binding (tested: 3 µg/ml)” in experiment [2] and “binds” in experiment [4]. For the same molecule, in experiment [3], the Kd worked out at 1.5 nM.

B6: hu1G7.v1.2/38E4.v1 TDB (bispecific antibody, V domains shown)
VH 1: B1 VH 1
VL 1: B1 VL 1 with S52Y, Y53N, H91Q, Y92F, S93Q
VH 2: B1 VH 2
VL 2: B1 VL 2
notes: knob-into-hole TDB; also called 1G7.v1.2 TDB
For the molecule B6, the binding result in experiment [1] is listed as “no binding (tested: 3 µg/ml)”; in experiment [2] it was “no binding (tested: 3 µg/ml)”; in experiment [4], “binds”. Further, in experiment [3], binding was put at a Kd of 2.6 nM.
